Reference: patent publication US20240392271

Tested on: dXR (PTBP1 experiment; KRAB not stated in the excerpt) (synthetic construct)
Test: cell_activity
Conditions: mouse astrocytes, day 11

Sequence | activity (PTBP1/total protein relative to NT) (no clear repression) | activity (PTBP1/total protein relative to NT)
CAGCGGGGAUCCGACGAGCU / CAGCGGGGATCCGACGAGCT / AGCTCGTCGGATCCCCGCTG [gRNA spacer 28.10 ; PTBP1 target 28.10] | 0.945 | 
ACAGCAUCGUCCCAGACAUA / ACAGCATCGTCCCAGACATA / TATGTCTGGGACGATGCTGT [gRNA spacer 28.16 ; PTBP1 target 28.16] |  | 0.464
